The source of these data is publication PMC2779421.

Several values for one entry are separate records, joined by “and”; a condition that tells them apart may be missing. Equal entries are not always repeated.

In test [1] the target is β-Amyloid peptide Aβ-(1–40). Kind of test: continuous-wave EPR.
Test [2] concerns the target β-Amyloid peptide Aβ-(1–40). Kind of test: filtration.

Take “Spin-labeled Cys-(Aβ) (40 residue Aβ peptide variant containing an N-terminal cysteine, labeled with MTSL)”: in test [1], the % of the slow component (larger aggregates) in the total spectrum, 5–6 h stood at 34%; the stoichiometry N (commonly a count of units in the complex or per binding partner) is 8 molecules and 15 molecules. The % of the slow component (larger aggregates) in the total spectrum, retentate in test [2] was 34%.
